The record followed here is patent US20050144661A1 (WASHINGTON UNIVERSITY, published 2005).

Sequences and labels used below:
T1: Unfused CLuc (Photinus pyralis)
T1 chain: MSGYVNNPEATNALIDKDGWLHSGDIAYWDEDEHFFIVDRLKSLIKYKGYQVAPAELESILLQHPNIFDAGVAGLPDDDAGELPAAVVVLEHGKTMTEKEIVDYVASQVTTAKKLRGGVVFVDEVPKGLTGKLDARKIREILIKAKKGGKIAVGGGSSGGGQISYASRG

B1: Cdc25C-NLuc (other, human;Photinus pyralis, UniProt P30307 1-473, looked up)
chain: MSTELFSSTREEGSSGSGPSFRSNQRKMLNLLLERDTSFTVCPDVPRTPVGKFLGDSANLSILSGGTPKRCLDLSNLSSGEITATQLTTSADLDETGHLDSSGLQEVHLAGMNHDQHLMKCSPAQLLCSTPNGLDRGHRKRDAMCSSSANKENDNGNLVDSEMKYLGSPITTVPKLDKNPNLGEDQAEEISDELMEFSLKDQEAKVSRSGLYRSPSMPENLNRPRLKQVEKFKDNTIPDKVKKKYFSGQGKLRKGLCLKKTVSLCDITITQMLEEDSNQGHLIGDFSKVCALPTVSGKHQDLKYVNPETVAALLSGKFQGLIEKFYVIDCRYPYEYLGGHIQGALNLYSQEELFNFFLKKPIVPLDTQKRIIIVFHCEFSSERGPRMCRCLREEDRSLNQYPALYYPELYILKGGYRDFFPEYMELCEPQSYCPMHHQDHKTELLRCRSQSKVQEGERQLREQIALLVKDMSPEDAKNIKKGPAPFYPLEDGTAGEQLHKAMKRYALVPGTIAFTDAHIEVNITYAEYFEMSVRLAEAMKRYGLNTNHRIVVCSENSLQFFMPVLGALFIGVAVAPANDIYNERELLNSMNISQPTVVFVSKKGLQKILNVQKKLPIIQKIIIMDSKTDYQGFQSMYTFVTSHLPPGFNEYDFVPESFDRDKTIALIMNSSGSTGLPKGVALPHRTACVRFSHARDPIFGNQIIPDTAILSVVPFHHGFGMFTTLGYLICGFRVVLMYRFEEELFLRSLQDYKIQSALLVPTLFSFFAKSTLIDKYDLSNLHEIASGGAPLSKEVGEAVAKRFHLPGIRQGYGLTETTSAILITPEGDDKPGAVGKVVPFFEAKVVDLDTGKTLGVNQRGELCVRGPMIMSGYVNNPEATNALIDKDG
modifications: phosphorylated on S216 in the cells (Western blot, reduced by UCN-01)
notes: FRB of the NLuc fusion vector replaced by the Cdc25C open reading frame; not shown: Gly/Ser linker region reconstituted up to the BsiWI site
B2: S2035I FRB-NLuc (other)
chain: MEMWHEGLEEAIRLYFGERNVKGMFEVLEPLHAMMERGPQTLKETSFNQAYGRDLMEAQEWCRKYMKSGNVKDLTQAWDLYYHVFRRISKQQISYASRGGGSSGGGEDAKNIKKGPAPFYPLEDGTAGEQLHKAMKRYALVPGTIAFTDAHIEVDITYAEYFEMSVRLAEAMKRYGLNTNHRIVVCSENSLQFFMPVLGALFIGVAVAPANDIYNERELLNSMGISQPTVVFVSKKGLQKILNVQKKLPIIQKIIIMDSKTDYQGFQSMYTFVTSHLPPGFNEYDFVPESFDRDKTIALIMNSSGSTGLPKGVALPHRTACVRFSHARDPIFGNQIIPDTAILSVVPFHHGFGMFTTLGYLICGFRVVLMYRFEEELFLRSLQDYKIQSALLVPTLFSFFAKSTLIDKYDLSNLHEIASGGAPLSKEVGEAVAKRFHLPGIRQGYGLTETTSAILITPEGDDKPGAVGKVVPFFEAKVVDLDTGKTLGVNQRGELCVRGPMIMSGYVNNPEATNALIDKDG
notes: Point mutant of FRB-NLuc made by site directed mutagenesis; also called mutant FRB(S2035I); FRB(S20351)
B3: CLuc-STAT1 (other, Photinus pyralis;human, UniProt P08659 398-550, looked up)
chain: MSGYVNNPEATNALIDKDGWLHSGDIAYWDEDEHFFIVDRLKSLIKYKGYQVAPAELESILLQHPNIFDAGVAGLPDDDAGELPAAVVVLEHGKTMTEKEIVDYVASQVTTAKKLRGGVVFVDEVPKGLTGKLDARKIREILIKAKKGGKSKLMSQWYELQQLDSKFLEQVHQLYDDSFPMEIRQYLAQWLEKQDWEHAANDVSFATIRFHDLLSQLDDQYSRFSLENNFLLQHNIRKSKRNLQDNFQEDPIQMSMIIYSCLKEERKILENAQRFNQAQSGNIQSTVMLDKQKELDSKVRNVKDKVMCIEHEIKSLEDLQDEYDFKCKTLQNREHETNGVAKSDQKQEQLLLKKMYLMLDNKRKEVVHKIIELLNVTELTQNALINDELVEWKRRQQSACIGGPPNACLDQLQNWFTIVAESLQQVRQQLKKLEELEQKYTYEHDPITKNKQVLWDRTFSLFQQLIQSSFVVERQPCMPTHPQRPLVLKTGVQFTVKLRLLVKLQELNYNLKVKVLFDKDVNERNTVKGFRKFNILGTHTKVMNMEESTNGSLAAEFRHLQLKEQKNAGTRTNEGPLIVTEELHSLSFETQLCQPGLVIDLETTSLPVVVISNVSQLPSGWASILWYNMLVAEPRNLSFFLTPPCARWAQLSEVLSWQFSSVTKRGLNVDQLNMLGEKLLGPNASPDGLIPWTRFCKENINDKNFPFWLWIESILELIKKHLLPLWNDGCIMGFISKERERALLKDQQPGTFLLRFSESSREGAITFTWVERSQNGGEPDFHAVEPYTKKELSAVTFPDIIRNYKVMAAENIPENPLKYLYPNIDKDHAFGKYYSRPKEAPEPMELDGPKGTGYIKTELISVSEVHPSRLQTTDNLLPMSPEEFDEVSRIVGSVEFDSMMNTV
modifications: unphosphorylated on Y701 in untreated cells (Western blot); phosphorylated after IFN-γ
notes: not shown: Gly/Ser linker with cloning sites
B4: Unfused NLuc (2-416) (other, Photinus pyralis, UniProt P08659 2-416, looked up)
chain: EDAKNIKKGPAPFYPLEDGTAGEQLHKAMKRYALVPGTIAFTDAHIEVNITYAEYFEMSVRLAEAMKRYGLNTNHRIVVCSENSLQFFMPVLGALFIGVAVAPANDIYNERELLNSMNISQPTVVFVSKKGLQKILNVQKKLPIIQKIIIMDSKTDYQGFQSMYTFVTSHLPPGFNEYDFVPESFDRDKTIALIMNSSGSTGLPKGVALPHRTACVRFSHARDPIFGNQIIPDTAILSVVPFHHGFGMFTTLGYLICGFRVVLMYRFEEELFLRSLQDYKIQSALLVPTLFSFFAKSTLIDKYDLSNLHEIASGGAPLSKEVGEAVAKRFHLPGIRQGYGLTETTSAILITPEGDDKPGAVGKVVPFFEAKVVDLDTGKTLGVNQRGELCVRGPMIMSGYVNNPEATNALIDKDG
B5: FRB-NLuc(2-416) (other, human;Photinus pyralis, UniProt P42345 2024-2113, looked up)
chain: HEMWHEGLEEASRLYFGERNVKGMFEVLEPLHAMMERGPQTLKETSFNQAYGRDLMEAQEWCRKYMKSGNVKDLTQAWDLYYHVFRRISKEDAKNIKKGPAPFYPLEDGTAGEQLHKAMKRYALVPGTIAFTDAHIEVNITYAEYFEMSVRLAEAMKRYGLNTNHRIVVCSENSLQFFMPVLGALFIGVAVAPANDIYNERELLNSMNISQPTVVFVSKKGLQKILNVQKKLPIIQKIIIMDSKTDYQGFQSMYTFVTSHLPPGFNEYDFVPESFDRDKTIALIMNSSGSTGLPKGVALPHRTACVRFSHARDPIFGNQIIPDTAILSVVPFHHGFGMFTTLGYLICGFRVVLMYRFEEELFLRSLQDYKIQSALLVPTLFSFFAKSTLIDKYDLSNLHEIASGGAPLSKEVGEAVAKRFHLPGIRQGYGLTETTSAILITPEGDDKPGAVGKVVPFFEAKVVDLDTGKTLGVNQRGELCVRGPMIMSGYVNNPEATNALIDKDG
notes: range 2024-2113;range 2-416; The printed ORF starts with an added Met (MEMWHEG...); not shown: flexible Gly/Ser linker with multiple cloning site
B6: CLuc-14-3-3ε (other, UniProt P08659 398-550, looked up)
chain: MSGYVNNPEATNALIDKDGWLHSGDIAYWDEDEHFFIVDRLKSLIKYKGYQVAPAELESILLQHPNIFDAGVAGLPDDDAGELPAAVVVLEHGKTMTEKEIVDYVASQVTTAKKLRGGVVFVDEVPKGLTGKLDARKIREILIKAKKGGKSKLMDDREDLVYQAKLAEQAERYDEMVESMKKVAGMDVELTVEERNLLSVAYKNVIGARRASWRIISSIEQKEENKGGEDKLKMIREYRQMVETELKLICCDILDVLDKHLIPAANTGESKVFYYKMKGDYHRYLAEFATGNDRKEAAENSLVAYKAASDIAMTELPPTHPIRLGLALNFSVFYYEILNSPDRACRLAKAAFDDAIAELDTLSEESYKDSTLIMQLLRDNLTLWTSDMQGDGEEQNKEALQDVEDENQ
notes: FKBP of the CLuc fusion vector replaced by 14-3-3ε; not shown: Gly/Ser linker with cloning sites

In the assay “CLuc-STAT1” the target is B3. Nature of the assay: LCI, live HEK-293 cells.
For assay [1], the target named is T2, CLuc(398-550)-FKBP (Photinus pyralis; human, UniProt P08659 398-550 = luciferase; P62942 1-108).
T2 construct: The printed ORF starts with an added Met; also called CLuc-FKBP; not shown: flexible Gly/Ser linker with multiple cloning site
Nature of the assay: LCI in mice with i.p. implants of transfected HEK-293 cells, with and without rapamycin.

In a further assay the target is T3, STAT1-NLuc (human; Photinus pyralis, UniProt P42224 1-750; P08659 2-416 = luciferase, unphosphorylated on Y701 in untreated cells (Western blot); phosphorylated after IFN-γ).
T3 construct: not shown: Gly/Ser linker region reconstituted up to the BsiWI site
Nature of the assay: LCI, live HEK-293 cells.

The target of another assay is T1, Unfused CLuc. Nature of the assay: cell-based or functional assay.
For assay [2], the target named is T2, CLuc(398-550)-FKBP. Put plainly: cell-based or functional assay.

On to B1, for which, in the assay with CLuc-STAT1, the binding result is listed as “no binding”.
On to B2, for which, in the assay with CLuc(398-550)-FKBP [1], the binding result was “no binding”.
In the case of B3, in the assay with STAT1-NLuc, the binding result is “binds”.
For the molecule B4, in the assay with Unfused CLuc, the “background bioluminescence against the FRB-NLuc/CLuc-FKBP pair in the absence of rapamycin” value amounted to 12 fold less and the “background bioluminescence against the FRB-NLuc/CLuc-FKBP pair in the presence of rapamycin” value worked out at 100 fold less.
As to B5, in the assay with Unfused CLuc, the “bioluminescence signal against FRB-NLuc/CLuc-FKBP without rapamycin” value was determined as 3 fold lower. In the assay with CLuc(398-550)-FKBP [2], the “apparent Kd of rapamycin for induced FRB/FKBP association, bioluminescence readout in intact HEK-293 cells” value turned out to be 1.5 nM; the “apparent Ki of FK506 for inhibition of rapamycin-induced luciferase activity in situ (rapamycin 80 nM)” value came to 4.2 nM; the “bioluminescence induction by rapamycin (80 nM) in cell lysates over untreated lysates, within 15 minutes” value turned out to be 18 fold; the “drug-specific induction of bioluminescence over background” value is 1200 fold. For the same molecule, in the assay with CLuc(398-550)-FKBP [2], the “maximal mean bioluminescence signal over untransfected cells, with rapamycin, live HEK-293 cells” value was determined as 72 fold; the “maximum bioluminescence in rapamycin-treated mice over untreated mice (i.p. cell implants)” value turned out to be 23 fold; the “mean maximal increase in bioluminescence with rapamycin (80 nM) over untreated transfected cells, within 4-6 hrs” value came out at 6 fold. For the same molecule, in the assay with CLuc-STAT1, the binding result is given as “no binding”.
For B6, in the assay with STAT1-NLuc, the binding result is recorded as “no binding”.
